Sequences and labels used below:
B1: TPR 5TU (parent)
chain: GGAUCUUCUCGAUCUAACAAAAAAGACAAAUCUGCCACAAAGCUUGAGAGCAUCUUCGGAUGCAGAGGCGGCAGCCUUCGGUGGCGCGAUAGCGCCAACGUUCUCAACUAUGACACGCAAAACGCGUGCUCCGUUGAAUGGAGUUUAUCAUG

Fewer inactive variants are shown than the library holds. A value given as a limit tells only on which side of the number the result lay.

Variants of B1 are the subject of this data set. Kind of data set: polymerase ribozyme fitness, log enrichment relative to wild type (log ratio); higher = more active; in vitro selection for triplet polymerase activity. The method, boiled down: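 Mutant libraries of both subunits of a heterodimeric triplet polymerase ribozyme were PCR-built, transcribed, and selected once in triplicate, with frozen incubation at −7 °C and capture of gel-excised extended constructs on streptavidin beads before RT-PCR. Illumina sequencing of input and output libraries was filtered to genotypes with ≥10 input reads and ≥1 read per output. Fitness is the logarithm of genotype enrichment over wild-type enrichment, using inverse-variance-weighted replicate averages. The logarithm is base 2.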
On to C93G C108G, for which the “polymerase ribozyme fitness (log ratio)” value is -3.9. The result for G94C C105A reads -1.22; that for C93A A138U, -4.18; that for C96A A115U A147C, -3.48. As for C93U G136C, the “polymerase ribozyme fitness (log ratio)” value is -4.02. The result for C93U G136A reads -1.1; that for C96A U104A G124C, -1.19; that for C93U C116U, -0.9. As for G94A A137C, the “polymerase ribozyme fitness (log ratio)” value was -3.2. With C96A G124U, the “polymerase ribozyme fitness (log ratio)” value was -0.674. For C96A G124A, the “polymerase ribozyme fitness (log ratio)” value is -0.328.

Turning to C93U C95U U102A A106G, the “polymerase ribozyme fitness (log ratio)” value was -2.87. For the variant C93U C96A, the “polymerase ribozyme fitness (log ratio)” value is -1.65. The figure for C95A G140A is -2.71. Regarding G94A G141C, the “polymerase ribozyme fitness (log ratio)” value was -2.23.

Consider G94A G141A, for which the “polymerase ribozyme fitness (log ratio)” value came to 0.172. Consider G94A G141U, for which the “polymerase ribozyme fitness (log ratio)” value is 0.898.

For the variant G94C A97U, the “polymerase ribozyme fitness (log ratio)” value was -2.45. In the case of G94A U104C C149U, the “polymerase ribozyme fitness (log ratio)” value is -1.16. The figure for C93A C116G A142G is -3.07; for G94C U134G U135C it is not above -4.2; for C96G A97U it is -1.83. The result for C96G A97G reads -2.61; that for C96G A98U C103G A113C G143A, not above -4.2. The result for C93G C123U G141U reads -2.27. Take C95U C96G U135G U144G A147C: the “polymerase ribozyme fitness (log ratio)” value is -4.2.

For the variant C93G C103G, the “polymerase ribozyme fitness (log ratio)” value was not above -4.2. G94C A97U A150G: the “polymerase ribozyme fitness (log ratio)” value is -1.52. With C96G A122U A142U, the “polymerase ribozyme fitness (log ratio)” value was -1.45. The result for C93U A110G reads -3.25; that for C93U A110U, -4.1; that for C93U U148A, -3.85. The result for C93A U104G reads -2.89; that for C96A G136A, -0.205; that for G94A C116G, 0.466. The result for C96A U130C reads 0.457; that for G92U G112C, -2.95. On to G92U C99U U144G, for which the “polymerase ribozyme fitness (log ratio)” value turned out to be 0.0398.

Take C93G A97U U145G: the “polymerase ribozyme fitness (log ratio)” value is not above -4.2. The figure for G94A G152C is -3.08; for C93A C103G it is -3.88; for C95G A97C it is -0.47.

Regarding C93U C99G G136A, the “polymerase ribozyme fitness (log ratio)” value is -0.753.

On to C95U, for which the “polymerase ribozyme fitness (log ratio)” value was -0.031.

Take C95A: the “polymerase ribozyme fitness (log ratio)” value is 0.441. C95U C123U: the “polymerase ribozyme fitness (log ratio)” value amounted to 0.509. The result for G94A C96G reads -2.1. For C95U C96U G124U G136C, the “polymerase ribozyme fitness (log ratio)” value is -3.61. The result for G92U U146A reads -0.393. Turning to C93A G100C C118G A138G, the “polymerase ribozyme fitness (log ratio)” value is not above -4.2. The figure for C93A C118U C125A A142G is not above -4.2. The result for C93A G136A reads -1.14.

In the case of C93A G136U, the “polymerase ribozyme fitness (log ratio)” value was -4.17. Regarding C93A A107U A110G C114U U127G, the “polymerase ribozyme fitness (log ratio)” value is not above -4.2. The figure for C93U C95U C131U is -0.998; for C95A U101C it is 0.62; for G94A G117U it is -0.469. Turning to C96G A97G G143U, the “polymerase ribozyme fitness (log ratio)” value was -3.14. For C93A G94A C123U C149U, the “polymerase ribozyme fitness (log ratio)” value is not above -4.2. The result for G94C A97G C116A reads -0.587. On to C95A C108G, for which the “polymerase ribozyme fitness (log ratio)” value was not above -4.2.

Turning to C93U C99A, the “polymerase ribozyme fitness (log ratio)” value is -3.72. The result for C93U C99G reads -1.97; that for C93U C99U, -2.8.

G94C A122C A137U: the “polymerase ribozyme fitness (log ratio)” value is -4.05. As for C93A C96U, the “polymerase ribozyme fitness (log ratio)” value is -3.3. Regarding C93A C96A, the “polymerase ribozyme fitness (log ratio)” value is -3.78. For the variant C93U C95G, the “polymerase ribozyme fitness (log ratio)” value is -2.26. For the variant C93A C116U, the “polymerase ribozyme fitness (log ratio)” value is -1.88. The figure for C93A A138G G143C is -3.66; for C95A G141C it is 0.744; for G94A U151A it is not above -4.2. For the variant G94A A119U, the “polymerase ribozyme fitness (log ratio)” value is -2.21. For C96A C105U, the “polymerase ribozyme fitness (log ratio)” value is 0.343. The figure for C96A C105G is -1.4; for C93U G117C C125A it is -0.271. On to G94U U101G A120U A142U, for which the “polymerase ribozyme fitness (log ratio)” value is -2.08. With C93A G140A, the “polymerase ribozyme fitness (log ratio)” value was -4.11. As to C93A U101G U139C G141C, the “polymerase ribozyme fitness (log ratio)” value was -3.88. For C93U A97C, the “polymerase ribozyme fitness (log ratio)” value was -0.557. The figure for C93U A97U is -2.14.

Turning to G94A A97U, the “polymerase ribozyme fitness (log ratio)” value is -1.

C93U C118U: the “polymerase ribozyme fitness (log ratio)” value was -1.84. In the case of C93A G117U, the “polymerase ribozyme fitness (log ratio)” value was -1.92. The result for C93A G94A reads -2.93. For C93U C114U G141A, the “polymerase ribozyme fitness (log ratio)” value is not above -4.2.

As for C96G A110G, the “polymerase ribozyme fitness (log ratio)” value was -3.11. The figure for G94A U101G is -0.0834. For C93A A106G, the “polymerase ribozyme fitness (log ratio)” value is -1.9. As to G92U U145A, the “polymerase ribozyme fitness (log ratio)” value is 0.602. The result for C93U A106C reads -1.75; that for G94A U148A, -3.08; that for G94A U148C, -2.75. The result for C95U U145A reads 0.0594. Regarding C93U C123G A138C, the “polymerase ribozyme fitness (log ratio)” value is not above -4.2. For the variant C93G A142U, the “polymerase ribozyme fitness (log ratio)” value is -3.03. The figure for C93G A142C is -4.02; for C93G G141C it is -3.36. On to C93A U146C, for which the “polymerase ribozyme fitness (log ratio)” value is -2.18. As to C93A U146G, the “polymerase ribozyme fitness (log ratio)” value is -3.27. For the variant G94A U139C, the “polymerase ribozyme fitness (log ratio)” value was -3.82. The figure for C93G A98C is -2.81. The result for C93G A98U reads -2.82; that for C93U A137C, -4.07. As to G94C G117U, the “polymerase ribozyme fitness (log ratio)” value turned out to be 0.0157.

In the case of C93G C96U, the “polymerase ribozyme fitness (log ratio)” value is -3.61. Regarding C96A C125A, the “polymerase ribozyme fitness (log ratio)” value was -0.718.

With G94A G133C, the “polymerase ribozyme fitness (log ratio)” value is -2.71.

Consider G94A G133U, for which the “polymerase ribozyme fitness (log ratio)” value is -3.19. The figure for C96A C103G is -2.53; for G94C U145G it is -0.944; for C95A C96A U104C A142C it is -4.07. As for G94C C131U, the “polymerase ribozyme fitness (log ratio)” value is -1.79.

Take G94U A142U: the “polymerase ribozyme fitness (log ratio)” value was -1.73. The figure for C96G A142U U146A is -1.97.

In the case of C93A C125U, the “polymerase ribozyme fitness (log ratio)” value is -2.47. The figure for C93A C95G is not above -4.2.

On to C93A C95U, for which the “polymerase ribozyme fitness (log ratio)” value was -3.37. The result for C95G C96G reads -2.17. The figure for C95G C96U is -2.05. Regarding G94U C114G C116U, the “polymerase ribozyme fitness (log ratio)” value was not above -4.2. For the variant C93U A115U A120G, the “polymerase ribozyme fitness (log ratio)” value was -2.4. G94C A113G: the “polymerase ribozyme fitness (log ratio)” value was -2.8. For the variant C96A C105U A122U, the “polymerase ribozyme fitness (log ratio)” value is 0.463. The result for G94A C105G C116A G141C reads not above -4.2; that for G92U G124U G141C, -0.283. The figure for C96A U148A is -3.15; for C93A U148G G152U it is not above -4.2. The figure for G92U U104G is -0.858; for C93A A98G it is -1.81. With C96A A98U, the “polymerase ribozyme fitness (log ratio)” value is -0.335. Turning to G94A G143A, the “polymerase ribozyme fitness (log ratio)” value was -1.01. The result for G94A G143U reads -3.57; that for C95U C114U, -1.72; that for C95A A120G A138G, -2.96. The figure for C93A A107U G126C A150G is not above -4.2.

In the case of C93U C114A, the “polymerase ribozyme fitness (log ratio)” value was -3.41. The result for C93G C149U reads -4.08; that for C93A A150G, -3.51; that for G92U C123A, -0.758.

In the case of G94U C129G A147U, the “polymerase ribozyme fitness (log ratio)” value was not above -4.2. The result for G94U A97G U127A A150U reads not above -4.2; that for C95U C123A C125U, -0.165. The figure for C93A A142C is -1.78; for C93A A142G it is -2.77. The result for C93A A142U reads -3.16.

Consider C95U A147U, for which the “polymerase ribozyme fitness (log ratio)” value amounted to 0.673. Turning to C93A A110U, the “polymerase ribozyme fitness (log ratio)” value is -3.99. Consider C93U A150G, for which the “polymerase ribozyme fitness (log ratio)” value is -1.93.

In the case of C93G C116U, the “polymerase ribozyme fitness (log ratio)” value is -3.07. For G94A G141A A150U, the “polymerase ribozyme fitness (log ratio)” value is not above -4.2. As to C96A U127A, the “polymerase ribozyme fitness (log ratio)” value was -3.79. Turning to C93U G94U, the “polymerase ribozyme fitness (log ratio)” value was -1.43. Consider C96G A98G G124A, for which the “polymerase ribozyme fitness (log ratio)” value was -1.82. Turning to C95U C105G, the “polymerase ribozyme fitness (log ratio)” value was -0.337. Take C95U U101G C105U C125U A142U: the “polymerase ribozyme fitness (log ratio)” value is not above -4.2. The result for C95U C99G U104G A110G C116A A142U reads not above -4.2. The figure for C95U A98G is -1.9; for C95U A98C it is -1; for C96A G152U it is -2.51. For C93G A119C, the “polymerase ribozyme fitness (log ratio)” value is -3.47. C93U U135A: the “polymerase ribozyme fitness (log ratio)” value was -2.01. The result for C93U U135C reads -2.76; that for C95U C96A C99U C108U, -4.11. The result for G92U C118A reads -1.05; that for C96A G117U A138U, not above -4.2.

In the case of G94A C123G U146G, the “polymerase ribozyme fitness (log ratio)” value was -1.05.

These data come from the RNAGym collection of RNA variant scans (doi:10.1073/pnas.2313332121).
